According to the supplement of paper PMC9170038:

Tested on: K4 kissing-loop RNA reporter
Assay: apparent KD of K4 kissing-loop reporter; higher = weaker reporter binding
Conditions: Eterna round: R107
Experimental: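 RNA-MaP round R107: designed RNA switches with theophylline, tryptophan, arginine or FMN aptamers are transcribed on-chip within common flanks. They are titrated with a labelled K4 kissing-loop RNA reporter in RNA-MaP buffer (100 mM Tris pH 7.5, 80 mM KCl, 4 mM MgCl2), without ligand or with the indicated ligand. Median apparent KD per design.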

[1] = input ligand: theophylline 20 uM
[2] = input ligand: tryptophan 2.4 mM
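Further: bound reporter read as fluorescence of individual clusters on recovered sequencing chips by microscopy, with normalized cluster intensities fitted with a binding model.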

Sequence	apparent KD of K4 kissing-loop reporter (input ligand: FMN 200 uM) [nM]	apparent KD of K4 kissing-loop reporter (input ligand: arginine 13.2 mM) [nM]	apparent KD of K4 kissing-loop reporter (input ligand: none) [nM]	apparent KD of K4 kissing-loop reporter [1] [nM]	apparent KD of K4 kissing-loop reporter [2] [nM]
UGUACCGAGUCAGGAUAUGGCGUCGAAAGACGAAUCUUAGUGAUGUUAGGGAUCUGCGAAAGCAGUUCAGAAGGGACUUGGUACU [FmnBS 26 U37+U67]	349	427	506	556	515
UGUACCGAGUCAGGAUAUGGCGUCGAAAGACGAAUUCUAGUGAUGUUAGGGAUCUGCGAAAGCAGUUCAGAAGGGACUUGGUACU [FmnBS 26 U36+U67]	243	288	342	470	360
UGUACCGAGUCAGGAUAUGUCGUCGAAAGACGAAUCCUAGUGAUGUUAGGGAUCUGCGAAAGCAGUGCAGAAGGGACUUGGUACU [FmnBS 26 U20+G67]	235	182	216	226	207
UGUAUCAUCUAAGGAUAUAUCAUGUGAUGCACCGAGUAUCGCAUCAAUUCUGAGUGAUGUUCAGGUAUAGAAGGUAGAUGAUGCA [FMN B SS t2]	207	178	212	259	228
UGUAUGGACUGAAGGAGCGCUAGGAAAGUGAGUGAUGUUCAUAUAAAAGUAUAAAGGGUUUGGCAGGUAGGUCGCAGUCCAUACU [KL-SSArg B5]	225	344	234	270	135
UGUAUGUGAUUUGAUACCAGACCAGUUGGUGGUAUAUGAGUGAUGUUUAUGUUGGUUUGGGUCCCUUGGCAGCAAAUCGCAUACU [KL-SSTheoB11]	591	307	491	356	386
UGUAUGUGAUUUGAUACCAGACCAUCUUGUGAGAAAUGAGUGAUGUUUAUUUUGGUUUGGGUCCCUUGGCAGCAAAUCGCAUACU [KL-SSTheoB24]	507	356	505	419	439
UGUAUGUGUCAGCGAGUGAUGUUCGACGAUACCAGACUCGAUAGAGUCCCUUGGCAGCGUAAUGCAUGCCAACUGGCACAUACUA [#SwitchBubble 12 #K4Early]	745	651	837	608	597
UGUCAUUGGUCGGCCGCCACUAAAAUAAAAGAGUGAUGUUCUUAAAAGACGGACAAAGUCUGUCAUAGGACCGGGACCGAUGACU [TrypBS 23 #SwitchBubble #StaticStem]	547	425	529	436	202
UGUCAUUGGUCGGCCGCCACUAGACGGAUCAUAAGAUCUGUCAAUAAGAGUGAUGUUCUAAAUAAUAGGACCGGGACCGAUGACU [TrypBS 27 #SwitchBubble #StaticStem]	988	653	907	681	647
UGUCAUUGGUCGGCCGCCACUAGGACCGGGUUUUACCUAGUGAUGUUAGUAUGAACGGCCGCCACUAGGACCGGGACCGAUGACU [KL-SSTryp-B25 #DoubleAptamer]	343	195	322	442	113
UGUCAUUGGUCGGCCGCCACUCCGUAACGAGUGAUGUUCUAAAAGACGGAUCGAAAGAUCUGUCGGAGGACCGGGACCGAUGACU [FiskerMod 7 - Jieux - Same State - Tryptophan B]	725	149	448	199	900
UGUCAUUGGUCGGCCGCCACUUCAUAGAGAGUGAUGUUCUUUAAGACGGAUCGAAAGAUCUGUCGAAGGACCGGGACCGAUGACU [FiskerMod 10 - Jieux - Same State - Tryptophan B]	924	527	1390	777	262
UGUCAUUGGUCGGCCGCCACUUCAUGUAGAGUGAUGUUCUGUAGGACGGAUCGAAAGAUCUGUCGAAGGACCGGGACCGAUGACU [FiskerMod 14 - Jieux - Same State - Tryptophan B]	818	725	1180	727	272
UGUCGGUGAAGAAUGUUAGUGAUGUUGGCACGAGGACCGGUACGGCCGCCACUCGGUAAUCAUCGCAAUUAUCGAUGGCGUAGCC [theeternabot_exclusion_KL_Trp_A_3]	183	170	147	166	182
UGUCUGAUGGAAACAUCGGACUUUACUGAUACCAGUAUCGAUAGAUACCCUUGGCAGCAGAAUCAGUAAUAACGAGUGAUGUUCG [Ex Theophylline A K4 3]	347	280	386	317	310
UGUGGAGGAUAUGAUACCAGCAGUGAGAGAGAGGAAGUAUAGUGAUGUUAUAUGAGAGAAUGCCCUUGGCAGCGUGUGUAGUAGG [SSTheophylB.J]	189	165	200	153	210
